Assay results reported in article PMC4635315 (2015).

Experiments:
BARTL1 (CCDC104/CFAP36) = BARTL1 (CCDC104/CFAP36) (Homo sapiens, UniProt Q96G28); test: fluorescence polarization
[1] = target: BARTL1 (CCDC104/CFAP36) 1-133 (Homo sapiens, UniProt Q96G28); test: fluorescence polarization
Sequence of BARTL1 (CCDC104/CFAP36) 1-133 (Q96G28 1-133): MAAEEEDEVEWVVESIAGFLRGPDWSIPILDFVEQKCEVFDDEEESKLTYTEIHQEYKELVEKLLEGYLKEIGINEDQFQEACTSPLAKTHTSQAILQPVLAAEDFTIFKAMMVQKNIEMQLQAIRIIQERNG

Sequence of BARTL1 (CCDC104/CFAP36) (Q96G28 whole entry): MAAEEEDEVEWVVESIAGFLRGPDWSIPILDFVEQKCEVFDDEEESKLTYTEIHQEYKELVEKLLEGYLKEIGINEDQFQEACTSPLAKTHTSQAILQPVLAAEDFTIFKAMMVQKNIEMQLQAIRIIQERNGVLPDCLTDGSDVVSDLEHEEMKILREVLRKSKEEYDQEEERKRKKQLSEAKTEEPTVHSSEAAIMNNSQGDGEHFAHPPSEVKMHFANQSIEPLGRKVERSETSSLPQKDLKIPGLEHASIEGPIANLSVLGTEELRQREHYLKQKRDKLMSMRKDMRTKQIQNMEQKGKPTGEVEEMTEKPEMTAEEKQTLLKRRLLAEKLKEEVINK

- Kd (BARTL1 (CCDC104/CFAP36)): ~10 µM
- Kd [1]: ~4.3 µM
B1: Arl2 (protein)
chain: GLLTILKKMKQKERELRLLMLGLDNAGKTTILKKFNGEDVDTISPTLGFNIKTLEHRGFKLNIWDVGGQKSLRSYWRNYFESTDGLIWVVDSADRQRMQDCQRELQSLLVEERLAGATLLIFANKQDLPGALSCNAIQEALELDSIRSHHWRIQGCSAVTGEDLLPGIDWLLDDISSRVFTAD
modifications: mant-GppNHp-bound Arl2
